Earlier results, collected in publication PMC6008586, “Analysis of transition state mimicry by tight binding aminothiazoline inhibitors provides insight into catalysis by human O-GlcNAcase” (Chemical Science, 2016).

Target: Asp174 (UniProt position 174, FALLFDDIDHN)
Experiment: kinetics
Settings: the article refers the ionisation state to the resting enzyme; free-enzyme versus enzyme-substrate complex is not specified

For “O-GlcNAcase (OGA, protein O-GlcNAc hydrolase, GH84) (Homo sapiens)”, the pKa is listed as 5.2.
